Square brackets hold non-standard residues; d marks the D form. Ends that are not written are not given here. Ahx = NCCCCCC(=O)O; βAla = NCCC(=O)O
Experiments:
[1] = Toxicological assessment of peptide-PMO (urinary KIM-1, NGAL; serum BUN); format: in vivo, C57BL/6 mice; settings: for urinary KIM-1 levels: single dose 30 mg/kg (2.5-50 mg/kg); for urinary KIM-1 levels / urinary NGAL levels: urine Day 2 and Day 7, normalised to urinary creatinine; for urinary NGAL levels: single dose 30 mg/kg
Experimental: Female C57BL/6 mice aged 8-10 weeks were administered a single 30 mg/kg dose of peptide-PMO in 0.9% saline by bolus intravenous tail vein injection. Urine was non-invasively collected under chilled conditions at Day 2 and Day 7 post-administration following 20 hours housing in metabolic cages (Tecniplast, UK). Serum was collected from jugular vein at Day 7 at necropsy, as was tibialis anterior, diaphragm and heart tissue.
The same procedure was followed at different single dosage amounts ranging from 2.5 mg/kg up to 50 mg/kg of peptide-PMO in 0.9% saline by intravenous tail vein injection.
Urinary levels of KIM-1 (Kidney injury molecule-1) and NGAL (Neutrophil Gelatinase-Associated Lipocalin) were quantified by ELISA (KIM-1 R&D cat #MKM100, NGAL R&D cat #MLCN20) following appropriate dilution of urine to fit standard curves. Values were normalised to urinary creatinine levels that were quantified at MRC Harwell Institute, Mary Lyon Centre, Oxfordshire, UK. Serum blood urea nitrogen levels were quantified at MRC Harwell Institute, Mary Lyon Centre, Oxfordshire, UK.
All levels were quanitifed on an AU680 Clinical Chemistry Analyser, Beckman Coulter. Quantification of exon skipping efficacy was determined by quantitative RT-PCR of exon 23 skipped and unskipped transcripts and expressed as percentage of skipped versus total (skipped and unskipped) transcripts (see Table 7 for sequences).

[2] = Recovery times of mice after injection with peptide-PMOCAG7 conjugates; format: in vivo, C57BL6 mice; settings: 12.5 mg/kg; HSA-LR mice; age 8-12 weeks
Experimental: Animal experiments and ASO injections. Experiments were carried out in the University of Oxford according to UK legislation. The intravenous injections in HSA-LR C57BL/6 mice were performed by single or repeated administrations via the tail vein. Doses of 30, 12.5, 7.5 and 5 mg/kg of peptide-PMO-CAG7 (SEQ ID NO: 192) were diluted in 0.9% saline and given at a volume of 5-6 pL/g of body weight. KIM-1 levels in C57BL6 female mice measured by ELISA (R&D cat #MKM100) with samples diluted to fit within standard curve. Values were normalised to urinary creatinine levels (Harwell) to account for urine protein concentration.

human hepatocytes = assay: Hepatocyte cell viability (fluorescent-based assay); settings: 40 uM
Experimental: Immortalized myoblasts from healthy individual or DM1 patient with 2600 CTG repeats were cultivated in a growth medium consisting of a mix of M199: DMEM (1:4 ratio; Life technologies) supplemented with 20% FBS (Life technologies), 50 µg/ml gentamycin (Life technologies), 25 pg/ml fetuin, 0.5 ng/ml bFGF, 5 ng/ml EGF and 0.2 pg/ml dexamethasone (Sigma-Aldrich). Myogenic differentiation was induced by switching confluent cell cultures to DMEM medium supplemented with 5 pg/ml insulin (Sigma-Aldrich) for myoblasts. For treatment, WT or DM1 cells are differentiated for 4 days. Then, medium was changed with fresh differentiation medium with peptide-PMOs at a 1, 2, 5 10, 20 or 40 pM concentration. Cells were harvested for analysis 48 h after treatment. Cell viability was quantified in after 2 days of transfection of peptide-PMOs at 40 uM in human hepatocytes or at a 1, 2, 5 10, 20 or 40 pM concentration in human myoblasts using a fluorescent-based assay (Promega).

[3] = fmoc spps; Fmoc-beta-Ala-OH preloaded Wang resin (0.19 or 0.46 mmol g-1); PyBOP/NMM; PyBOP/HOAt/DIPEA (or HBTU) for PMO conjugation; settings: conjugation step, UV-Vis, based on PMO extinction coefficient, scale 10 pmol or 100 pmol (so in the source)
dystrophin = settings: in vivo; cited from earlier work

## DPEP 1.9 (Ac-R[βAla]RR[βAla]RFQILY[βAla]R[βAla]R[βAla]; also: PMO conjugate, site not given here)
[1]
  urinary KIM-1 levels: lowest levels
  urinary NGAL levels: lowest levels

## pip6a: prior peptide carrier AC-RXRRBRRXR-YQFLI-RXRBRXR-B conjugated to [CAG]7 PMO (SEQ ID NO: 192) (Ac-R[Ahx]RR[βAla]RR[Ahx]RYQFLIR[Ahx]R[βAla]R[Ahx]R[βAla]; also: conjugated to [CAG]7 PMO, site not given here) [reference compound]
[2]
  Recovery time after injection, Time AV ± SD: >60 min
Human hepatocytes
  percentage hepatocyte cell viability: cell mortality

## Ac-RBRRBRRFQILYRBHBH-(Ab)-PMO (GGCCAAACCTCGGCTTACCTGAAAT; listed as DNA, chemistry not fully specified)
[3]
  conjugation yield: 26%

## Pip9b2 (Ac-R[Ahx]RR[βAla]RRFQILYR[βAla]R[Ahx]R[βAla]; also: PMO conjugate, site not given here) [reference compound]
[1]; 7 days after single dose of 30 mg/kg
  Serum blood urea nitrogen levels: elevated

## eteplirsen
dystrophin
  levels of dystrophin restoration: approximately 1 % of normal dystrophin levels

## DPEP 3.8 (Ac-R[βAla]RR[βAla]RFQILYR[βAla]H[βAla]H[βAla]; also: PMO conjugate, site not given here)
[1]
  urinary KIM-1 levels: lowest levels
  urinary NGAL levels: lowest levels

## Ac-RBRRBRFQILYBRBR-(E)-PMO (GGCCAAACCTCGGCTTACCTGAAAT; peptide Ac-RBRRBRFQILYBRBR-(E) conjugated, chemistry not fully specified)
[3]
  conjugation yield: 39%
